Test system: casein

GST-WKS1_Kinase fusion protein was tested, and the in-gel kinase activity was “The WKS1 Ser/Thr kinase domain (pfam00069) was confirmed to have kinase activity (FIG. 17)”.

Source: US20120047604
